Results reported in publication PMC12697855, “Distinct Phage‐Encoded Enzymes for Substitution of Deoxythymidine by Deoxyuridine in Phage Genomes” (Advanced Science, 2025).

What was measured:
Dcd_PhiR1‐37 = test system: T1, Dcd_PhiR1‐37; assay: UV absorbance at […] nm, deamination; format: biochemical, Yersinia phage phiR1-37; conditions: Mg2+ (table; methods text says 2 mM Mn2+), 50 mM Tris-HCl pH 7.5, room temperature; read-out: kinetic parameters
T1 construct: gene Dcd; recombinant from codon-optimized synthetic gene in HMT plasmid, N-terminal His6-MBP tag, amylose column, E. coli

Dtt_PhiR1‐37 = test system: T2, Dtt_PhiR1‐37; assay: phosphomolybdate phosphate release, coupled inorganic pyrophosphatase IPP1; format: biochemical, Yersinia phage phiR1-37; conditions: 2 mM Mg2+, 50 mM Tris-HCl pH 7.5, room temperature; read-out: kinetic parameters
T2 construct: gene Dtt; recombinant from codon-optimized synthetic gene in HMT plasmid, N-terminal His6-MBP tag, amylose column, E. coli
Excerpt: phosphomolybdate phosphate release, coupled inorganic pyrophosphatase IPP1 on Dtt_PhiR1‐37

Dcd_PBS1 = biological target: T3, Dcd_PBS1 (Bacillus phage PBS1, UniProt A0A223LD31); assay: inhibition of dCTP deamination (details in supplement); format: biochemical; conditions: inhibitor (negative regulation); also the reaction product
T3 construct: gene 112; recombinant from codon-optimized synthetic gene in HMT plasmid, N-terminal His6-MBP tag, amylose column, E. coli
T3 sequence (A0A223LD31 1-176): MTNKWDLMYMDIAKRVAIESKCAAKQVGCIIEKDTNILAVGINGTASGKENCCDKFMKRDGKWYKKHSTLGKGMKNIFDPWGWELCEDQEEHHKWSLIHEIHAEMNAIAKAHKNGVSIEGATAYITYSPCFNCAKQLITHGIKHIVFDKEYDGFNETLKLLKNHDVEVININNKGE

[1] = substrate: Cc1cn([C@H]2C[C@H](O)[C@@H](COP(=O)(O)O)O2)c(=O)[nH]c1=O; assay: phosphomolybdate phosphate release; format: biochemical, Bacillus phage PBS1; conditions: Mg2+ (table; methods text says 2 mM Co2+), 50 mM Tris-HCl pH 7.5, room temperature
Excerpt: phosphomolybdate phosphate release on Dtm_PBS1

purified protein [2] = substrate: Nc1ccn([C@H]2C[C@H](O)[C@@H](COP(=O)(O)O)O2)c(=O)n1; assay: purified protein; format: biochemical, Exiguobacterium artemiae; conditions: Co2+ is best metal (methods text for kinetics says 2 mM Mn2+), 50 mM Tris-HCl pH 7.5, room temperature
purified protein [3] = substrate: Nc1ccn([C@H]2C[C@H](O)[C@@H](COP(=O)(O)OP(=O)(O)O)O2)c(=O)n1; assay: purified protein; format: biochemical, Exiguobacterium artemiae; conditions: Co2+ is best metal (methods text for kinetics says 2 mM Mn2+), 50 mM Tris-HCl pH 7.5, room temperature
purified protein [4] = substrate: Nc1ccn([C@H]2C[C@H](O)[C@@H](COP(=O)(O)OP(=O)(O)OP(=O)(O)O)O2)c(=O)n1; assay: purified protein; format: biochemical, Exiguobacterium artemiae; conditions: Co2+ is best metal (methods text for kinetics says 2 mM Mn2+), 50 mM Tris-HCl pH 7.5, room temperature
purified protein [5] = substrate: Nc1ccn([C@H]2C[C@H](O)[C@@H](COP(=O)(O)O)O2)c(=O)n1; assay: purified protein; format: biochemical, Sulfurimonas gotlandica; conditions: 2 mM Mn2+, 50 mM Tris-HCl pH 7.5, room temperature
purified protein [6] = substrate: Nc1ccn([C@H]2C[C@H](O)[C@@H](COP(=O)(O)OP(=O)(O)O)O2)c(=O)n1; assay: purified protein; format: biochemical, Sulfurimonas gotlandica; conditions: 2 mM Mn2+, 50 mM Tris-HCl pH 7.5, room temperature
purified protein [7] = substrate: Nc1ccn([C@H]2C[C@H](O)[C@@H](COP(=O)(O)OP(=O)(O)OP(=O)(O)O)O2)c(=O)n1; assay: purified protein; format: biochemical, Sulfurimonas gotlandica; conditions: 2 mM Mn2+, 50 mM Tris-HCl pH 7.5, room temperature
[8] = substrate: Cc1cn([C@H]2C[C@H](O)[C@@H](COP(=O)(O)O)O2)c(=O)[nH]c1=O; assay: phosphomolybdate phosphate release; format: biochemical, Bacteriophage DSS3_VP1; conditions: 2 mM Co2+, 50 mM Tris-HCl pH 7.5, room temperature
Excerpt: (§1) phosphomolybdate phosphate release on Dtm_DSS3_VP1

[9] = substrate: O=c1ccn([C@H]2C[C@H](O)[C@@H](COP(=O)(O)O)O2)c(=O)[nH]1; assay: phosphomolybdate phosphate release; format: biochemical, Bacteriophage DSS3_VP1; conditions: 2 mM Co2+, 50 mM Tris-HCl pH 7.5, room temperature
Excerpt: as §1

purified protein [10] = substrate: Nc1ccn([C@H]2C[C@H](O)[C@@H](COP(=O)(O)O)O2)c(=O)n1; assay: purified protein; format: biochemical, Bacteriophage DSS3_VP1; conditions: 2 mM Mn2+, 50 mM Tris-HCl pH 7.5, room temperature
purified protein [11] = substrate: Nc1ccn([C@H]2C[C@H](O)[C@@H](COP(=O)(O)OP(=O)(O)O)O2)c(=O)n1; assay: purified protein; format: biochemical, Bacteriophage DSS3_VP1; conditions: 2 mM Mn2+, 50 mM Tris-HCl pH 7.5, room temperature
purified protein [12] = substrate: Nc1ccn([C@H]2C[C@H](O)[C@@H](COP(=O)(O)OP(=O)(O)OP(=O)(O)O)O2)c(=O)n1; assay: purified protein; format: biochemical, Bacteriophage DSS3_VP1; conditions: 2 mM Mn2+, 50 mM Tris-HCl pH 7.5, room temperature
purified protein [13] = substrate: Nc1ccn([C@H]2C[C@H](O)[C@@H](COP(=O)(O)OP(=O)(O)OP(=O)(O)O)O2)c(=O)n1; assay: purified protein; format: biochemical, Bacillus phage PBS1; conditions: 2 mM Mn2+, 50 mM Tris-HCl pH 7.5, room temperature

**Q.** Which Km (Dcd_PhiR1‐37) does the source give for `Nc1ccn([C@H]2C[C@H](O)[C@@H](COP(=O)(O)OP(=O)(O)OP(=O)(O)O)O2)c(=O)n1` [dCTP] here?
**A.** 117 ± 31 µM

**Q.** For `Cc1cn([C@H]2C[C@H](O)[C@@H](COP(=O)(O)OP(=O)(O)OP(=O)(O)O)O2)c(=O)[nH]c1=O` [dTTP], which Km (Dtt_PhiR1‐37) is on record?
**A.** 108 ± 11 µM

**Q.** Which Km (Dtt_PhiR1‐37) does the source give for `O=c1ccn([C@H]2C[C@H](O)[C@@H](COP(=O)(O)OP(=O)(O)OP(=O)(O)O)O2)c(=O)[nH]1` [dUTP] here?
**A.** 145 ± 16 µM

**Q.** And the “inhibition of dCTP deamination (details in supplement)” value (Dcd_PBS1)?
**A.** Bacillus phage PBS1 Dcd is negatively regulated by dUTP (Figure S9, Supporting Information)

**Q.** Which Km (Dtt_PhiR1‐37) does the source give for `Nc1nc2c(ncn2[C@H]2C[C@H](O)[C@@H](COP(=O)(O)OP(=O)(O)OP(=O)(O)O)O2)c(=O)[nH]1` [dGTP] here?
**A.** 440 ± 110 µM

B1: Dtm_PBS1 (Bacillus phage PBS1) (protein)
chain: MFSIKEPFSIVTDCDEVLTDISPLWVHKIQQNADYFGKYFDLSKLEGLEFGTFEHYQTVLSRPEFHLNKWLRKENLVLSDEEEKELFERFYSLYDNDEFYEDCMPTKMCEGIYKLSLQKFVDKIYVVTRTSEGTKEGKRKFIETFLNSNKVEIIFVGKNEKKSDYIKNLKNVKMIVEDELSNINDIVENCNDGFEEVDIYIPSTGYNNKDIDGFNENLMKKGFNAVPYVIIERPETEEKAV
notes: recombinant from pCold TF, E. coli BL21(DE3), N-terminal His6-Trigger factor-TEV site tag, Ni-NTA; tag kept
**Q.** What does the source list for B1?
**A.** Km [1]: 42 ± 8 µM; kcat [1]: 0.0317 ± 0.0017 s⁻¹

B2: E. sibiricum cytidine nucleotide deaminase (Exiguobacterium artemiae 255-15) (protein)
chain: MMKKQHQWDTTWLLFARMMADRHSKCASKSVACVIVKDEKPISIGINGTPSQHVNCNEIYLKQDNILYKAEAERQQEKADALSIVHNGQVFYRCDNQEEHHEWSKMNEIHAEINALGKLAADSTSARHATAYVTHSPCHACSLALIASKIDRVVYSTGYEYGDGLTLMRQSEIEVLHRPLTEEYFLERIFDKDL
notes: recombinant from codon-optimized synthetic gene in HMT plasmid, N-terminal His6-MBP tag, amylose column, E. coli
**Q.** Which results are given for B2?
**A.** Km (purified protein [2]): 415 ± 143 µM; kcat (purified protein [2]): 0.05 ± 0.01 s⁻¹; Km (purified protein [3]): 179 ± 31 µM; kcat (purified protein [3]): 21.2 ± 1.9 s⁻¹; Km (purified protein [4]): 186 ± 35 µM; kcat (purified protein [4]): 0.9 ± 0.1 s⁻¹

B3: S. gotlandica cytidine nucleotide deaminase (Sulfurimonas gotlandica GD1) (protein)
chain: MLSDQNFINIAQELATASKCVSKQVGAVIVKDGRILSTGYNGTPAGFTNCCDHWNGEYTPDHHEWSKTYEIHAEMNAIIWAARKGISIEGASIFVTLEPCSECSKNLIASGIKRIVYAKEYEHTHSDTISKFIKDNGVSIEQLAPKV
notes: as for B2
**Q.** How did the Km (purified protein [5]) turn out when B3 was run?
**A.** 661 ± 178 µM

**Q.** What about the kcat (purified protein [5]) of the same molecule?
**A.** 0.28 ± 0.05 s⁻¹

**Q.** What about the Km (purified protein [6]) of the same molecule?
**A.** 271 ± 90 µM

**Q.** What about the kcat (purified protein [6]) of the same molecule?
**A.** 0.5 ± 0.1 s⁻¹

**Q.** And the Km (purified protein [7])?
**A.** 293 ± 88 µM

**Q.** And the kcat (purified protein [7])?
**A.** 0.06 ± 0.01 s⁻¹

B4: Dtm_DSS3_VP1 (Bacteriophage DSS3_VP1) (protein)
chain: MCNEKIALGYELYTSGYVNRYHSHPHPHLRNAQDLTDAHSNRMVKLLYLFFPELAHRGTLVAYIVMHDAGESASGDSPFTAKIANPKLKEALDEVEGQRLAQFYGLFQNDLRIDLTQKEENVVKLLDLLESFLFQAIHAPGRMDEEHHLFQNIEKRARELEVYPEVRCMMMHALHRNNAATKGY
notes: as for B2
**Q.** Which Km [8] does the source give for B4 here?
**A.** 22 ± 4 µM

**Q.** And the kcat [8]?
**A.** 3.1 ± 0.1 s⁻¹

**Q.** And the Km [9]?
**A.** 170 ± 15 µM

**Q.** What about the kcat [9] of the same molecule?
**A.** 1 ± 0.1 s⁻¹

B5: Dcd_DSS3_VP1 (Bacteriophage DSS3_VP1) (protein)
chain: MHSWDKRFMEMAELVASWSKDPRTKVGCVLADSKHRVLGVGYNGFPRGVNDRDDRYANREVKLAMVKHAEENAVFNAAKHDLSDAVAYVTLAPCSSCAGTLIQAGVRRVVFPEPDPEHMTRHYGNYELMLQMLSEARVLKSVITKEGVIK
notes: as for B2
**Q.** What does the source list for B5?
**A.** Km (purified protein [10]): 257 ± 55 µM; kcat (purified protein [10]): 1 ± 0.1 s⁻¹; Km (purified protein [11]): 144 ± 44 µM; kcat (purified protein [11]): 5.6 ± 0.8 s⁻¹; Km (purified protein [12]): 114 ± 22 µM; kcat (purified protein [12]): 8.9 ± 0.7 s⁻¹

B6: Dcd_PBS1 (Bacillus phage PBS1) (protein)
chain: MTNKWDLMYMDIAKRVAIESKCAAKQVGCIIEKDTNILAVGINGTASGKENCCDKFMKRDGKWYKKHSTLGKGMKNIFDPWGWELCEDQEEHHKWSLIHEIHAEMNAIAKAHKNGVSIEGATAYITYSPCFNCAKQLITHGIKHIVFDKEYDGFNETLKLLKNHDVEVININNKGE
notes: as for B2
**Q.** Which results are given for B6?
**A.** Km (purified protein [13]): 137 ± 23 µM; kcat (purified protein [13]): 15.4 ± 1 s⁻¹
